From the DeepSol protein solubility set

Test: soluble on expression in E. coli; label from the status in PepcDB or PDB records

Sequence | soluble on expression in E. coli
MTIAKDYRTIYRNQIKKQIRLNQEHLQSLTHLGSQINFEVDPPKLPDPDPARKVFFFDIDNTLYRKSTKVQLLMQQSLSNFFKYELGFDDDEAERLIESYYQEYGLSVKGLIKNKQIDDVLQYNTFIDDSLPLQDYLKPDWKLRELLINLKKKKLGKFDKLWLFTNSYKNHAIRCVKILGIADLFDGITYCHYDRPIEEEFICKPDPKFFETAKLQSGLSSFANAWFIDDNESNVRSALSMGMGHVIHLIEDYQYESENIVTKDHKNKQQFSILKDILEIPLIMDVEVYRPSSIAIKEMEELEEEGEAVNWSNQQINVQSS | soluble
MTIAQEPTALNFECETGNYHTFCPISCVAWLYQKIEDSFFLVIGTKTCGYFLQNAMGVMIFAEPRYAMAELEEGDISAQLNDYAELKRLCEQIKRDRNPSVIVWIGTCTTEIIKMDLEGLAPKLEGEIGIPIVVARANGLDYAFTQGEDTVLAAMAHRCPDKAPVAELEHHHHHH | not soluble
MTIDDSNRLLMDVDQFDFLDDGTAQLSNNKTDEEEQLYKRDPVSGAILVPMTVNDQPIEKNGDKMPLKFKLGPLSYQNMAFITAKDKYKLYPVRIPRLDTSKEFSAYVSGLFEIYRDLGDDRVFNVPTIGVVNSNFAKEHNATVNLAMEAILNELEVFIGRVKDQDGRVNRFYELEESLTVLNCLRTMYFILDGQDVEENRSEFIESLLNWINRSDGEPDEEYIEQVFSVKDSTAGKKVFETQYFWKLLNQLVLRGLLSQAIGCIERSDLLPYLSDTCAVSFDAVSDSIELLKQYPKDSSSTFREWKNLVLKLSQAFGSSATDISGELRDYIEDFLLVIGGNQRKILQYSRTWYESFCGFLLYYIPSLELSAEYLQMSLEANVVDITNDWEQPCVDIISGKIHSILPVMESLDSCTAAFTAMICEAKGLIENIFEGEKNSDDYSNEDNEMLEDLFSYRNGMASYMLNSFAFELCSLGDKELWPVAIGLIALSATGTRSAKKMVIAELLPHYPFVTNDDIEWMLSICVEWRLPEIAKEIYTTLGNQMLSAHNIIESIANFSRAGKYELVKS | soluble
MTIKEMPQPKTFGELKNLPLLNTDKPVQALMKIADELGEIFKFEAPGRVTRYLSSQRLIKEACDESRFDKNLSQALKFVRDFAGDGLFTSWTHEKNWKKAHNILLPSFSQQAMKGYHAMMVDIAVQLVQKWERLNADEHIEVPEDMTRLTLDTIGLCGFNYRFNSFYRDQPHPFITSMVRALDEAMNKLQRANPDDPAYDENKRQFQEDIKVMNDLVDKIIADRKASGEQSDDLLTHMLNGKDPETGEPLDDENIRYQIITFLIAGHETTSGLLSFALYFLVKNPHVLQKAAEEAARVLVDPVPSYKQVKQLKYVGMVLNEALRLWPTAPAFSLYAKEDTVLGGEYPLEKGDELMVLIPQLHRDKTIWGDDVEEFRPERFENPSAIPQHAFKPFGNGQRACPGQQFALHEATLVLGMMLKHFDFEDHTNYELDIKETLTLKPEGFVVKAKSKKIPLGGIPSPSTEQSAKKVRKKAENAHNTP | soluble
MTIKIALLGFGTVAKGIPYLLKENQHKLLSLEGEDIVIDKVLVRDNESRQRFINQGFTYNFVTEINTILQDSQIDIVVELMGGIEPAKTYLSQALGFGKHIVTANKDLIALHGKELMDLADARGLALFYEGAVAGGIPILRTLSHSFASDKMTRLLGILNGTSNFMLTKMFEEGW | not soluble
MTIKKYKTALSGMFPEEIQSFCGLKEKFRAQQIFHWIASGVNSFDEMTNLSFDMRSKLKNDFSLFSTKIKEALKDKDGTIKLAVELYDGSVIETVLLTDKAKRKTACVSCQAGCPMKCAFCKTGQIGFLRNLSASEIVEQFLHLEREAGSLDNIVFMGMGEPMLNLPEIDKAINILAHPKGRNLSKRRITISTSGLCKGIYEMADKGPEVRLAVSLTTADETLRSELMPITKTNSLDELKQAIKYFNSKSNKRVTLELALMKGLNTDKKAAQEVIEFAKGLECFINLIPWNPVEGLNFKTPSETEVRTFETYLKKAGLNISTRQKRGQSIGGACGQLGSTAARSNRF | not soluble
MTIYEQHFIFSDRIVPIRVRENKYARRLILRIDARGREICVTTPPAINLYSIQGFIAKHQSWIEARLARVQIAHANSYLKEGTKIPLLGIPHTIQRKEGRGITEIVAGDVRQEPKIVVYGQLEYLPRRIADVLKKQAALIITPLVKCYARKVERKVKSICYKDTKSRWGSCSIHGNLSFSWRLVMAPQEVIEYVVAHEVAHLIEMNHGPKFWALCEKLCPKSEAYRTWLKENGHMLQAVNFHSYRLEI | not soluble
MTIYHFVGIKGSGMSALAQILHDKGFQVQGSDVDKYFFTQKALEEKQIPIMTFSADNIKEGLTIIAGNAFPDTHEEIERANELNLPVIRYHKFLGQLIDGYTSIAITGSHGKTSTTGLLSHVVGAIRPTSYLIGDGTGSGTKDAKYFALEACEYQRHFLAYKPTYAIMTNIDWDHPDYFKSVDDVFNAFETLGKQVKKAVFALGDDVELRKLSLDVPIIYFGFGSENEFQAKNVKKETTGTKFDVYHRDEFLASFEIPAYGDHNVLNALSVIALCDYEGLPVDEVKKELKTFEGVKRRFSITEKGNQVLVDDYAHHPSEIRATVNAARQKYPNKKIVAVFQPHTFTRTRTFLQGFADSLNLADEVYLCDIFGSAREKTGNLTIADLAHKTKGNHIIKEEHTEELLQYPEAVILFMGAGDVQKFQAAYEKVLDNEIVANEVLKKSAIN | not soluble
MTKITVVGAGSWGTALAMVLADNGHDVRIWGNRSELMDEINTKHENSRYLPGITLPSTIVAYSSLEEALVDVNVVLIVVPTKAYREVLQDMKKYVAGPTTWIHASKGIEPGTSKRISEVIEEEIPEDLIKDVVVLSGPSHAEEVGLRQATTVTSAAKRMEAAEEVQDLFMNSYFRVYTNPDIVGVELGGALKNIIALAAGITDGLGLGDNAKAALMTRGLTEIARLGRKMGGNPLTFAGLTGMGDLIVTCTSVHSRNWRAGNMLGKGHSLEEVLESMGMVVEGVRTTKAAHELAEKMEVEMPITAALYDVLFNGNNVKDAVGSLMGRVRKHEVEAIPDLL | not soluble
MTKKALSAVILAAGKGTRMYSDLPKVLHTIAGKPMVKHVIDTAHQLGSENIHLIYGHGGDLMRTHLANEQVNWVLQTEQLGTAHAVQQAAPFFKDNENIVVLYGDAPLITKETLEKLIEAKPENGIALLTVNLDNPTGYGRIIRENGNVVAIVEQKDANAEQLNIKEVNTGVMVSDGASFKKWLARVGNNNAQGEYYLTDLIALANQDNCQVVAVQATDVMEVEGANNRLQLAALERYFQNKQASKLLLEGVMIYDPARFDLRGTLEHGKDVEIDVNVIIEGNVKLGDRVKIGTGCVLKNVVIGNDVEIKPYSVLEDSIVGEKAAIGPFSRLRPGAELAAETHVGNFVEIKKSTVGKGSKVNHLTYVGDSEIGSNCNIGAGVITCNYDGANKFKTIIGDDVFVGSDTQLVAPVKVANGATIGAGTTITRDVGENELVITRVAQRHIQGWQRPIKKK | soluble
MTKKVVVHQIVGHRFLGVNEQGDKVMIDGDQPSTGPRPMELLLMALGACTAYDVVDIMRKKKQPLARYRVEVEGERAETHPRRYTRITVTHIASGPGVTLEALERAVHLSHTKYCSVSATLNAEITTRVVLEPWEGEEGEG | soluble
MTKNKSVARDERYYKAYLESRTISRRGLFRGLLKGVQPSTTTAPSDITAPPPLRPPYAIDEPHFQQSCTGCGVCVAACEENLIVMVNQRPALNFSTPYFSTPYCSRCQACSTACQTGALSSAEFHIAARPSVKNICQNTYIYCDSCADYCEKQALIWQANQPPTLVTELCDGCGECVFRCPARILEMQI | not soluble
MTKTRRRGAELENAIYQAARDILNQDGLEQLTFANVAEQAGTSKPVIYRRWRSPLELAIAAIQDQIITENHGQLDEVSLTGQTLSEDLFQVLKRFTVSINTFNQALVITWFHHLDQQANPEVKDLLNAVKKIDAHAIERVCQRAQQRGELRTGTLSCDLQLMPFDWLRYRAFANEPITDATLHLLVDDLLVPAYQHALG | not soluble
MTKTTILLLCGGGSSEHEISLVSANYIQQQLELTPEFHVIRVEMKKEGWFSEQGALVYLDTNSATLNSDKASYPIDFVVPCIHGFPGETGDIQSMLELAGIPYLGCGPEASANSFNKITSKLWYDALDIPNTPYLFLTQNTPSSIDKAKQAFGHWGSIFVKAARQGSSVGCYKVTTEDQIAPAIEAAFGFSEQVLVEQAVKPRELEVSAYEMNGKLYISKPGEVIAPEGTFYSYEEKYSANSHARTVLEAENLTEKHKELIQTYAERVFIHMKLRHLSRIDFFLTQEGQIYLNEVNTFPGMTPISMFPKMLEHNGHRFSEFLVQCVTNTLVNAK | not soluble
MTKVERLLINYKTLEEFKKFKEYGIQELSMLEELQDNIIENDSTSPFYGIYFGDKLVARMSLYQVNGKSNPYFDNRQDYLELWKLEVLPGYQNRGYGRALVEFAKSFKMPIRTNPRMKSAEFWNKMNFKTVKYDMARDKGEDPLIWHPDMDREMTPGESA | soluble
MTLDEEYLDITFLTENGFVRKRCPKCGKHFWTADPEREICGDPPCESYSFIGNPVFKKPFELDEMREYYLNFFERRGHGRIERYPVVARWRTDIYLTIASIADFQPFVTSGVAPPPANPLTISQPCIRLDDLDSVGRTGRHLTLFEMMAHHAFNYPGKEIYWKNETVAYCTELLNELGVKKEDIVYKEEPWAGGGNAGPCLEAIVGGLEVATLVFMNLEEHPEGDIEIKGARYRKMDNYIVDTGYGLERFVWASKGTPTVYDAIFPEVVDTIIDNSNVSFNREDERVRRIVAESSKLAGIMGELRGERLNQLRKSVADTVGVSVEELEGIVVPLEKVYSLADHTRCILFMLGDGLVPSNAGAGYLARLMIRRSLRLAEELELGLDLYDLVEMHKKILGFEFDVPLSTVQEILELEKERYRTTVSKGTRLVERLVERKKKLEKDDLIELYDSHGIPVELAVGIAAEKGAEVEMPKDIYAELAKRHSKAEKVQEKKITLQNEYPATEKLYYDDPTLLEFEAEVIGVEGDFVILNRSAFYPESGGQDNDVGYLIANGGKFEVVDVLEADGVVLHVVKGAKPEVGTKVKGVIDSDVRWRHMRHHSATHVLLYSLQKVLGNHVWQAGARKEFSKARLDVTHFRRPSEEEIKEIEMLANREILANKPIKWEWMDRIEAERKFGFRLYQGGVPPGRKIRVVQVGDDVQACGGTHCRSTGEIGMLKILKVESIQDGVIRFEFAAGEA | soluble
MTLKLIGAGFGRTGTWSTFAALNRLGLPCYHMQEVIMNKANKGHLDFWRKVANSPPGSQHDWNRVFANYTATVDNPGCCVWKELLAAYPDAKVLLTLHPRGAEAWYESTIDTIYFTENVWQFKILEWLTPFGWKFGDMSRKLIWGRTLDGVMNDRAKAVARYNTYVEQVKAAVPPHKLLVYKVTEGWAPLCDFLGLEHHHHHH | soluble
MTLNPRQSALVELVRTQGSATIEALARHFDVTLQTVRRDVNLLSEAGMLSRFHGGVRIESSTIENIAYRKRQGLHAEGKRRIAEAVARAVPDGCSLLINIGTTTEAIARALLRHRGLRVITNNLHVADILSDNPDCEVIVAGGVVRSRDRGIVGEATLDFIRQFKVDIGLIGISGIEADGTLRDYDFREVRVARAIIEQSREVWLAADSSKFQRQAMVELVHVSRIHRFFTDTQPQEPLAQVLQDAGVRCDVAAQSAGAAAALEHHHHHH | not soluble
MTLPQTMKAAVVHAYGAPLRIEEVKVPLPGPGQVLVKIEASGVCHTDLHAAEGDWPVKPPLPFIPGHEGVGYVAAVGSGVTRVKEGDRVGIPWLYTACGCCEHCLTGWETLCESQQNTGYSVNGGYAEYVLADPNYVGILPKNVEFAEIAPILCAGVTVYKGLKQTNARPGQWVAISGIGGLGHVAVQYARAMGLHVAAIDIDDAKLELARKLGASLTVNARQEDPVEAIQRDIGGAHGVLVTAVSNSAFGQAIGMARRGGTIALVGLPPGDFPTPIFDVVLKGLHIAGSIVGTRADLQEALDFAGEGLVKATIHPGKLDDINQILDQMRAGQIEGRIVLEM | soluble
